The results in this text go back to patent publication US20090036382A1, “TGF-Beta Modulators and Use Thereof” (Universita' Degli Studi Di Padova, priority 2006, published 2009).

Assay [1] has as its system TGF-β activated p15 promoter. Nature of the assay: p15-lux luciferase reporter in MEF primary cultures from wild type and emilin1 -/- mice. Type of assay: cell-based, mouse. The following applies: FIG. 3A, 3B. The text has this:
MEF primary cultures were transfected with plasmid p15-lux (p15-luciferase) (Li et al., 1995) driving transcription of the luciferase marker gene under control of the p15^INK4B gene promoter. Since the p15 promoter is activated by TGF-β (i.e. p15 is a TGF-β target gene), the presence of the growth factor induces higher luciferase levels, which can be measured with a luminometer.
A general note: In a reporter assay the amount or activity of a reporter protein is the signal.

A further assay deals with pro TGF-β1. Nature of the assay: CAGA12-lux luciferase reporter in HEK293T cells co-transfected with pro TGF-β1 vector. Type of assay: cell-based, human. Particulars: for Effect on luciferase expression induced by pro TGF-β1: CAGA12-lux, co-transfection with pro TGF-β1 vector, FIG. 2B, 2C. The text has this:
• The construct for emilin 1 expression was engineered in pCS2 vector (Rupp R. A. et al., 1994, Genes Dev 8, 1311-1323) (for a physical map of the vector, see the site faculty.washington.edu/rtmoon/pcs2+.html) as described (Zanetti M. et al., 2004, Mol Cell Biol 24, 638-650); the vector used for proTGF-β expression in MEF and HEK293T cells is pCDNA3.1 (Invitrogen). Vectors containing the coding sequence for human pro TGF-β are described in Young and Murphy-Ullrich, 2004 (Young and Murphy-Ullrich, 2004, J Biol Chem 279, 38032-38039). The human pro TGF-β cDNA sequence is reported in the data bank (NP_000660; protein 000651). • The vector for Furin/SPC 1 expression is pCDNA3.1 (Invitrogen) • p15 and CAGA 12 promoter fragments are described in Jonk L. J. et al., 1998, J Biol Chem 273, 21145-21152 […]. • Constructs containing Flag sequences are described in Young G. D and Murphy-Ullrich J E, 2004, J Biol Chem 279, 38032-38039. • Constructs containing the Flag epitope (e.g. Flag-EMI-domain-GPI) were prepared as described in Chubet R G et al. Biotechniques 1996; 20(1):136-141 and detected by anti-Flag antibody (Kodak Inc.). • Constructs containing the GPI anchor were prepared as described in the Manual “Current Protocols in Cell Biology” Howard R. Petty Wayne State University, Detroit, Mich.; Juan S. Bonifacino, Mary Dasso, Joe B. Harford, Jennifer Lippincott-Schwartz, and Kenneth M. Yamada (eds.), Copyright C 2003 John Wiley & Sons, Inc. (GPI-anchor). In the construct Flag-EMI domain-GPI, the Flag sequence was inserted at the N-terminus after the signal peptide, while the GPI-anchor sequence was placed at the COOH-terminal end. • The construct emilin 1-KDEL was obtained by inserting the KDEL coding sequence described by Munro S., and Pelham, H. R., 1987, Cell 48, 899-907 upstream the emilin 1 STOP codon. • The construct containing the type II TGF-β receptor with HA epitope was described in Wrana J. L. et al., 1994, Nature 370, 341-347. • supplier of the drugs used: SP600125 (Calbiochem), SB431542 (Tocris). • Purified recombinant LAP and TGF-β1 proteins were purchased from (R&D Systems)
To verify how emilin or the EMI domain can contrast TGF-β1 activity independently from receptor binding, HEK293T cells were transfected with a construct coding luciferase placed under control of a TGF-β activated promoter: CAGA12-lux (Jonk et al., 1998) alone or in combination with a emilin1 expression vector (500 ng) as shown in FIG. 2B. After transfection, cells were treated (black bar) or not treated (white bar) with 5 ng/ml recombinant TGF-1 (lanes 1 and 2). Column bars from 3 to 6 report luciferase expression values in experiments with cells co-transfected with the expression vector for emilin1 (or EMI-domain or emilin1ΔEMI) alone (white bars) or in combination with the vector encoding pro TGF-β1 (black bars). Values show the mean±st. dev.
As further validation of the above observations, HEK293T cells were cotransfected with expression plasmids carrying the cDNAs shown in the summary scheme above the figure, along with CAGA12-lux and CMV-lacZ constructs, and luciferase expression levels were measured.

The target in assay [2] is T1, pro TGF-β1 (human TGF-β1 precursor) (human, UniProt P01137 30-390).
T1 construct: Expressed from pCDNA3.1 in HEK293T cells; also called TGF-β precursor; Flag-proTGF-β1
T1 sequence (P01137 30-390): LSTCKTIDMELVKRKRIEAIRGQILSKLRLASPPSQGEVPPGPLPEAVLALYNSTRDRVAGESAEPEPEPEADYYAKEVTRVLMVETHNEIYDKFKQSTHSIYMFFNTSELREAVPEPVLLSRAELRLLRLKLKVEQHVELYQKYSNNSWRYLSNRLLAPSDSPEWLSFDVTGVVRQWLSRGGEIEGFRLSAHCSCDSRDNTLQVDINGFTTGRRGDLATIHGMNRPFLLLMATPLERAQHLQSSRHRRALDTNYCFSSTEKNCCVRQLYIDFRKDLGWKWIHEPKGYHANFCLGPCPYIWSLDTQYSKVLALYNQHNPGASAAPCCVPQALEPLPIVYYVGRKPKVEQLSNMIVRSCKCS
Nature of the assay: co-immunoprecipitation with anti-Flag antibodies from HEK293T cell extracts, western blot with anti-LAP antibodies. As to the method:
To verify whether TGF-β or its precursor is the emilin target, HEK293T cells were transfected with a plasmid encoding pro TGF-β1 alone or with an expression plasmid for Flag-EMI domain-GPI. Cell extracts were prepared and subjected to the immunoprecipitation procedure with anti-Flag antibodies, as described in example 2. Immunoprecipitates were subjected to SDS-PAGE and Western blotting (WB) with anti-LAP antibodies.
For orientation: In western blotting, separated proteins are transferred to a membrane and probed.

Regarding `NC(=O)c1ccc(-c2nc(-c3ccc4c(c3)OCO4)c(-c3ccccn3)[nH]2)cc1` [SB431542], the “p15-lux transcriptional response in normal versus emilin1 -/- MEF cells after drug treatment” value in assay [1] was “a similar response is measured in normal and mutant cells”.
Turning to “emilin 2: emilin family protein, GenBank NP-114437”, the “Effect on luciferase expression induced by pro TGF-β1” value (from here on “Effect”) with pro TGF-β1 was “antagonize TGF-β activity at the of pro-TGF-β level”.

B1: multimerin 2: emilin family protein produced by endothelial cells, GenBank NP—079032 (protein)
chain: QASSTSLSDLQSSRTPGVWKAEAEDTGKDPVGRNWCPYPMSKLVTLLALCKTEKFLIHSQQPCPQGAPDCQKVKVMYRMAHKPVYQVKQKVLTSLAWRCCPGYTGPNCEHHDSMAIPEPADPGDSHQEPQDGPVSFKPGHLAAVINEVEVQQEQQEHLLGDLQNDVHRVADSLPGLWKALPGNLTAAVMEANQTGHEFPDRSLEQVLLPHVDTFLQVHFSPIWRSFNQSLHSLTQAIRNLSLDVEANRQAISRVQDSAVARADFQELGAKFEAKVQENTQRVGQLRQDVEDRLHAQHFTLHRSISELQADVDTKLKRLHKAQEAPGTNGSLVLATPGAGARPEPDSLQARLGQLQRNLSELHMTTARREEELQYTLEDMRATLTRHVDEIKELYSESDETFDQISKVERQVEELQVNHTALRELRVILMEKSLIMEENKEEVERQLLELNLTLQHLQGGHADLIKYVKDCNCQKLYLDLDVIREGQRDATRALEETQVSLDERRQLDGSSLQALQNAVDAVSLAVDAHKAEGERARAATSRLRSQVQALDDEVGALKAAAAEARHEVRQLHSAFAALLEDALRHEAVLAALFGEEVLEEMSEQTPGPLPLSYEQIRVALQDAASGLQEQALGWDELAARVTALEQASEPPRPAEHLEPSHDAGREEAATTALAGLARELQSLSNDVKNVGRCCEAEAGAGAASLNASLHGLHNALFATQRSLEQHQRLFHSLFGNFQGLMEANVSLDLGKLQTMLSRKGKKQQKDLEAPRKRDKKEAEPLVDIRVTGPVPGALGAALWEAGSPVAFYASFSEGTAALQTVKFNTTYINIGSSYFPEHGYFRAPERGVYLFAVSVEFGPGPGTGQLVFGGHHRTPVCTTGQGSGSTATVFAMAELQKGERVWFELTQGSITKRSLSGTAFGGFLMFKT
For the molecule B1, the “Effect” value with pro TGF-β1 was “antagonize TGF-β activity at the of pro-TGF-β level”.

B2: emilin1ΔEMI: emilin protein lacking the EMI-domain, used as control (protein)
chain: ASYPPRGFSLYTGSSGALSPGGPQAQIAPRPASSPAPALGPASSTPRPLARPARPNLSGSSAGSPLSGLGGEGPGESEKVQQLEEQVQSLTKELQGLRGVLQGLSGRLAEDVQRAVETAFNGRQQPADAAARPGVHETLNEIQHQLQLLDTRVSTHDQELGHLNNHHGGSSSSGGSRAPAPASAPPGPSEELLRQLEQRLQESCSVCLAGLDGFRRQQQEDRERLRAMEKLLASVEERQRHLAGLAVGRRPPQECCSPELGRRLAELERRLDVVAGSVTVLSGRRGTELGGAAGQGGHPPGYTSLASRLSRLEDRFNSTLGPSEEQEESWPGAPGGLSHWLPAARGRLEQLGGLLANVSGELGGRLDLLEEQVAGAMQACGQLCSGAPGEQDSQVSEILSALERRVLDSEGQLRLVGSGLHTVEAAGEARQATLEGLQEVVGRLQDRVDAQDETAAEFTLRLNLTAARLGQLEGLLQAHGDEGCGACGGVQEELGRLRDGVERCSCPLLPPRGPGAGPGVGGPSRGPLDGFSVFGGSSGSALQALQGELSEVILSFSSLNDSLNELQTTVEGQGADLADLGATKDRIISEINRLQQEATEHATESEERFRGLEEGQAQAGQCPSLEGRLGRLEGVCERLDTVAGGLQGLREGLSRHVAGLWAGLRETNTTSQMQAALLEKLVGGQAGLGRRLGALNSSLQLLEDRLHQLSLKDLTGPAGEAGPPGPPGLQGPPGPAGPPGSPGKDGQEGPIGPPGPQGEQGVEGAPAAPVPQVAFSAALSLPRSEPGTVPFDRVLLNDGGYYDPETGVFTAPLAGRYLLSAVLTGHRHEKVEAVLSRSNQGVARVDSGGYEPEGLENKPVAESQPSPGTLGVFSLILPLQAGDTVCVDLVMGQLAHSEEPLTIFSGALLYGDPELEHA
As to B2, the “Effect” value in the assay with pro TGF-β1 was “showed no effect on pro TGF-β”.

B3: emilin 1-KDEL: emilin 1 with KDEL sequence inserted upstream the STOP codon; retained intracellularly, not secreted (protein)
chain: ASYPPRGFSLYTGSSGALSPGGPQAQIAPRPASRHRNWCAYVVTRTVSCVLEDGVETYVKYQPCAWGQPQCPQSIMYRRFLRPRYRVAYKTVTDMEWRCCQGYGGDDCAESPAPALGPASSTPRPLARPARPNLSGSSAGSPLSGLGGEGPGESEKVQQLEEQVQSLTKELQGLRGVLQGLSGRLAEDVQRAVETAFNGRQQPADAAARPGVHETLNEIQHQLQLLDTRVSTHDQELGHLNNHHGGSSSSGGSRAPAPASAPPGPSEELLRQLEQRLQESCSVCLAGLDGFRRQQQEDRERLRAMEKLLASVEERQRHLAGLAVGRRPPQECCSPELGRRLAELERRLDVVAGSVTVLSGRRGTELGGAAGQGGHPPGYTSLASRLSRLEDRFNSTLGPSEEQEESWPGAPGGLSHWLPAARGRLEQLGGLLANVSGELGGRLDLLEEQVAGAMQACGQLCSGAPGEQDSQVSEILSALERRVLDSEGQLRLVGSGLHTVEAAGEARQATLEGLQEVVGRLQDRVDAQDETAAEFTLRLNLTAARLGQLEGLLQAHGDEGCGACGGVQEELGRLRDGVERCSCPLLPPRGPGAGPGVGGPSRGPLDGFSVFGGSSGSALQALQGELSEVILSFSSLNDSLNELQTTVEGQGADLADLGATKDRIISEINRLQQEATEHATESEERFRGLEEGQAQAGQCPSLEGRLGRLEGVCERLDTVAGGLQGLREGLSRHVAGLWAGLRETNTTSQMQAALLEKLVGGQAGLGRRLGALNSSLQLLEDRLHQLSLKDLTGPAGEAGPPGPPGLQGPPGPAGPPGSPGKDGQEGPIGPPGPQGEQGVEGAPAAPVPQVAFSAALSLPRSEPGTVPFDRVLLNDGGYYDPETGVFTAPLAGRYLLSAVLTGHRHEKVEAVLSRSNQGVARVDSGGYEPEGLENKPVAESQPSPGTLGVFSLILPLQAGDTVCVDLVMGQLAHSEEPLTIFSGALLYGDPELEHAKDEL
On to B3, for which, in the assay with pro TGF-β1 (CAGA12-lux and CMV-lacZ, FIG. 6C), the “Luciferase expression stimulated by transfected pro TGF-β” value is given as “abolishes its inhibitory action on the effects of pro TGF-β”.

B4: Flag-EMI-domain-GPI (emilin-1 EMI domain tagged with the Flag epitope and bound to a GPI anchor) (other, not shown: small tags and cut ends; large carriers)
chain: RHRNWCAYVVTRTVSCVLEDGVETYVKYQPCAWGQPQCPQSIMYRRFLRPRYRVAYKTVTDMEWRCCQGYGGDDCAE
modifications: GPI (glycosylphosphatidylinositol) anchor at the COOH-terminal end
notes: Expressed in transfected HEK293T cells and tested in cell extracts; also called EMI-domain-GPI-anchor; GPI anchored EMI domain
For B4, the binding result in assay [2] was “binds”.
